Assay results as given in patent US20250361288A1 (Gilead, published 2025).
Positions count from the first letter of the chain named. In names and notes the source's numbering stands.

T1: mouse HVEM extracellular domain fused with an Fc fragment at the C-terminus (mouse, UniProt Q80WM9 39-206, limits assumed)
T1 construct: extracellular domain; Bought; also called mHVEM; not shown: Fc fragment at the C-terminus
T1 sequence (looked up): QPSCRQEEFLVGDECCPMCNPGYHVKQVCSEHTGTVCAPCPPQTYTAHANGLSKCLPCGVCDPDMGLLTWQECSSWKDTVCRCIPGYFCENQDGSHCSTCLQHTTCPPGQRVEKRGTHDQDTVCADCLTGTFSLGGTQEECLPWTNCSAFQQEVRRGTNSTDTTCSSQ

T2: human HVEM extracellular domain fused with an Fc fragment at the C-terminus (human, UniProt Q92956 39-202)
T2 construct: extracellular domain; Bought; also called hHVEM; not shown: Fc fragment at the C-terminus
T2 sequence (looked up): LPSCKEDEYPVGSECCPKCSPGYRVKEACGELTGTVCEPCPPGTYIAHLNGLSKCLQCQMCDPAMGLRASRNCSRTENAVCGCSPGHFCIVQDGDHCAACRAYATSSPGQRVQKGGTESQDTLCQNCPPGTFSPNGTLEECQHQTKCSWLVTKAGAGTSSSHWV

B1: LIGHT-4 (ligand)
chain: DGPAGSWEQLIQERRSHEVNPAAHLTGANSSLTGSGGPLLWETQLGLAFLRGLSYHDGALVVTKAGYYYIYSKVQLGGMGCPLGLASPITHGLYKRTPRYPEELELLVSQQSPCGRATSSSRVWWDSSFLGGVVHLEAGEKVVVRVLDERLVRLLDGTRSYFGAFMV
notes: Printed mutations: V152M, T161P, R228L; Soluble protein carries an N-terminal His tag
B2: LIGHT-8 (ligand)
chain: B1 chain with G77S, M79V, S87G, P88T, L147S, L155R
notes: Printed mutations: G150S, S160G, L220S; Soluble protein carries an N-terminal His tag
B3: LIGHT-6 (ligand)
chain: B1 chain with M79V, P88T, W125Q, L147N, D148G, L155R
notes: Printed mutations: W198Q, L220N, D221G; Soluble protein carries an N-terminal His tag
B4: LIGHT-38 (ligand)
chain: B1 chain with M79V, P88T, Q111R, W125Q, L155R
notes: Printed mutations: Q184R, W198Q; Soluble protein carries an N-terminal His tag
B5: LIGHT-13 (ligand)
chain: B1 chain with S31P, M79V, G84S, P88T, H135Y, L147R, L155R
notes: Printed mutations: S104P, G157S, H208Y, L220R; Soluble protein carries an N-terminal His tag
B6: LIGHT-83 (ligand)
chain: B1 chain with Q44E, M79V, S87G, L147S, E149S, L154T, L155R
notes: Printed mutations: Q117E, S160G, T161P, L220S, E222S, L227T; Soluble protein carries an N-terminal His tag
B7: LIGHT-80 (ligand)
chain: B1 chain with Q44N, M79V, S87G, P88G, L147S, E149S, L154T, L155R
notes: Printed mutations: Q117N, S160G, T161G, L220S, E222S, L227T; Soluble protein carries an N-terminal His tag
B8: LIGHT-65 (ligand)
chain: B1 chain with M79V, S87G, P88T, L147S, L154T, L155R
notes: Printed mutations: S160G, L220S, L227T; Soluble protein carries an N-terminal His tag
B9: LIGHT-74 (ligand)
chain: B1 chain with Q44N, M79V, S87G, P88G, L147S, L154T, L155R
notes: Printed mutations: Q117N, S160G, T161G, L220S, L227T; Soluble protein carries an N-terminal His tag
B10: LIGHT-75 (ligand)
chain: B1 chain with Q44N, M79V, S87G, L147S, L154T, L155R
notes: Printed mutations: Q117N, S160G, T161P, L220S, L227T; Soluble protein carries an N-terminal His tag
B11: LIGHT-81 (ligand)
chain: B1 chain with Q44N, M79V, S87G, L147S, E149S, L154T, L155R
notes: Printed mutations: Q117N, S160G, T161P, L220S, E222S, L227T; Soluble protein carries an N-terminal His tag
B12: LIGHT-56 (ligand)
chain: B1 chain with Q44E, M79V, P88T, L147T, L154T, L155R
notes: Printed mutations: Q117E, L220T, L227T; Soluble protein carries an N-terminal His tag
B13: LIGHT-69 (ligand)
chain: B1 chain with M79V, S87G, L147S, L154T, L155R
notes: Printed mutations: S160G, T161P, L220S, L227T; Soluble protein carries an N-terminal His tag
B14: LIGHT-62 (ligand)
chain: B1 chain with M79V, S87G, P88G, L147T, L155R
notes: Printed mutations: S160G, T161G, L220T; Soluble protein carries an N-terminal His tag
B15: LIGHT-54 (ligand)
chain: B1 chain with Q44E, M79V, P88T, L147S, L154T, L155R
notes: Printed mutations: Q117E, L220S, L227T; Soluble protein carries an N-terminal His tag
B16: LIGHT-77 (ligand)
chain: B1 chain with Q44E, M79V, S87G, L147S, L154T, L155R
notes: Printed mutations: Q117E, S160G, T161P, L220S, L227T; Soluble protein carries an N-terminal His tag
B17: LIGHT-67 (ligand)
chain: B1 chain with M79V, P88S, L147S, L154T, L155R
notes: Printed mutations: T161S, L220S, L227T; Soluble protein carries an N-terminal His tag
B18: LIGHT-71 (ligand)
chain: B1 chain with Q44N, M79V, L147S, L154T, L155R
notes: Printed mutations: Q117N, T161P, L220S, L227T; Soluble protein carries an N-terminal His tag
B19: LIGHT-64 (ligand)
chain: B1 chain with M79V, L147S, L154T, L155R
notes: Printed mutations: T161P, L220S, L227T; Soluble protein carries an N-terminal His tag
B20: LIGHT-85 (ligand)
chain: B1 chain with Q44E, M79V, S87G, P88S, L147S, E149S, L154T, L155R
notes: Printed mutations: Q117E, S160G, T161S, L220S, E222S, L227T; Soluble protein carries an N-terminal His tag
B21: LIGHT-82 (ligand)
chain: B1 chain with Q44E, M79V, S87G, P88G, L147S, E149S, L154T, L155R
notes: Printed mutations: Q117E, S160G, T161G, L220S, E222S, L227T; Soluble protein carries an N-terminal His tag
B22: LIGHT-55 (ligand)
chain: B1 chain with Q44N, M79V, P88T, L147T, L154T, L155R
notes: Printed mutations: Q117N, L220T, L227T; Soluble protein carries an N-terminal His tag
B23: LIGHT-78 (ligand)
chain: B1 chain with Q44N, M79V, S87G, P88S, L147S, L154T, L155R
notes: Printed mutations: Q117N, S160G, T161S, L220S, L227T; Soluble protein carries an N-terminal His tag
B24: LIGHT-57 (ligand)
chain: B1 chain with M79V, P88T, L147S, L154T, L155R
notes: Printed mutations: L220S, L227T; Soluble protein carries an N-terminal His tag
B25: LIGHT-73 (ligand)
chain: B1 chain with Q44E, M79V, P88G, L147S, L154T, L155R
notes: Printed mutations: Q117E, T161G, L220S, L227T; Soluble protein carries an N-terminal His tag
B26: LIGHT-79 (ligand)
chain: B1 chain with Q44E, M79V, S87G, P88S, L147S, L154T, L155R
notes: Printed mutations: Q117E, S160G, T161S, L220S, L227T; Soluble protein carries an N-terminal His tag
B27: LIGHT-72 (ligand)
chain: B1 chain with Q44N, M79V, S87G, P88T, L147S, L154T, L155R
notes: Printed mutations: Q117N, S160G, L220S, L227T; Soluble protein carries an N-terminal His tag
B28: LIGHT-66 (ligand)
chain: B1 chain with M79V, S87G, P88T, L147T, L154T, L155R
notes: Printed mutations: S160G, L220T, L227T; Soluble protein carries an N-terminal His tag
B29: LIGHT-59 (ligand)
chain: B1 chain with M79V, S87G, L147S, L155R
notes: Printed mutations: S160G, T161P, L220S; Soluble protein carries an N-terminal His tag
B30: LIGHT-70 (ligand)
chain: B1 chain with Q44N, M79V, P88G, L147S, L154T, L155R
notes: Printed mutations: Q117N, T161G, L220S, L227T; Soluble protein carries an N-terminal His tag
B31: LIGHT-68 (ligand)
chain: B1 chain with M79V, S87G, P88G, L147S, L154T, L155R
notes: Printed mutations: S160G, T161G, L220S, L227T; Soluble protein carries an N-terminal His tag
B32: LIGHT-53 (ligand)
chain: B1 chain with Q44N, M79V, P88T, L147S, L154T, L155R
notes: Printed mutations: Q117N, L220S, L227T; Soluble protein carries an N-terminal His tag
B33: LIGHT-63 (ligand)
chain: B1 chain with M79V, P88G, L147S, L154T, L155R
notes: Printed mutations: T161G, L220S, L227T; Soluble protein carries an N-terminal His tag

Biological target: T1, mouse HVEM extracellular domain fused …
Test: phage ELISA
Description: (§1) Individual clones from the fourth selection round were grown in 96-well deep well blocks in 100 μl of 2YT broth supplemented with 50 μg/ml ampicillin at 37° C. and 220 rpm for 5 hours. Then, 5 μl of helper phages were added to each well and incubated at 37° C. for 30 minutes. After centrifuging at 3,000 rpm for 10 minutes, the cells were resuspended and grown overnight in 150 μl/well of 2YT broth supplemented with 50 μg/ml ampicillin and 50 μg/ml kanamycin.
(§2) For the ELISA screening, 96-well ELISA plates were coated with target proteins (1 μg/ml in PBS) at 4° C. overnight and then blocked with 2% BSA for 2 hours at room temperature. The supernatant containing phage particles was added to the plates and incubated at room temperature for 1 hour. After incubation, the plates were washed five times with PBST. HRP (horseradish peroxidase) conjugated anti-M13 antibody (Sino Biological, China) was added to the wells and incubated at room temperature for 1 hour. Following another round of washing five times with PBST, 50 μl of TMB (3,3′, 5,5″-tetramethylbenzidine, #34029, ThemoFisher) was added to each well. After 5 minutes, the reaction was stopped by adding 50 μl stop solution (#C1058, Solarbio, China). The absorbance at 450 nm (OD450) was measured using a plate reader (SpectraMax M5, Molecule Devices). Wells coated with BSA were used as negative controls. Phage clones with an ELISA score ratio (target/BSA)>3 were considered positive clones.

Row | Binder | binding result
1 | B1 | binds
2 | B2 | binds
3 | B3 | binds
4 | B4 | binds
5 | B5 | binds

Biological target: T2, human HVEM extracellular domain fused …
Test: phage ELISA
Description: as §1, §2

Row | Binder | binding result
6 | B1 | no binding
7 | B6 | binds
8 | B2 | no binding
9 | B3 | no binding
10 | B7 | binds
11 | B8 | binds
12 | B9 | binds
13 | B10 | binds
14 | B11 | binds
15 | B12 | binds
16 | B4 | binds
17 | B13 | binds
18 | B14 | binds
19 | B15 | binds
20 | B16 | binds
21 | B17 | binds
22 | B18 | binds

Row | Binder | binding result
23 | B19 | binds
24 | B20 | binds
25 | B21 | binds
26 | B22 | binds
27 | B23 | binds
28 | B24 | binds
29 | B25 | binds
30 | B26 | binds
31 | B27 | binds
32 | B28 | binds
33 | B29 | binds
34 | B30 | binds
35 | B5 | binds
36 | B31 | binds
37 | B32 | binds
38 | B33 | binds

Biological target: T3, mouse LTβR extracellular domain fused with an Fc fragment at the C-terminus (mouse, UniProt P50284 31-223)
T3 construct: extracellular domain; Bought; also called mLTβR; not shown: Fc fragment at the C-terminus
T3 sequence (P50284 31-223): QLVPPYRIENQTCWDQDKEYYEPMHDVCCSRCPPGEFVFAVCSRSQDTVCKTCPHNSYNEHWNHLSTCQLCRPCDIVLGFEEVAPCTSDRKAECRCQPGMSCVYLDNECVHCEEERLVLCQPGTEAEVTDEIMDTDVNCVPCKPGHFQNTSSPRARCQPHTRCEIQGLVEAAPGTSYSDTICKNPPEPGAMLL
Test: phage ELISA
Description: as §1, §2

Row | Binder | binding result
39 | B1 | binds
40 | B6 | binds
41 | B2 | binds
42 | B3 | binds
43 | B7 | binds
44 | B8 | binds
45 | B9 | binds
46 | B10 | binds
47 | B11 | binds
48 | B12 | binds
49 | B4 | binds
50 | B13 | binds
51 | B14 | binds
52 | B15 | binds
53 | B16 | binds
54 | B17 | binds
55 | B18 | binds

Row | Binder | binding result
56 | B19 | binds
57 | B20 | binds
58 | B21 | binds
59 | B22 | binds
60 | B23 | binds
61 | B24 | binds
62 | B25 | binds
63 | B26 | binds
64 | B27 | binds
65 | B28 | binds
66 | B29 | binds
67 | B30 | binds
68 | B5 | binds
69 | B31 | binds
70 | B32 | binds
71 | B33 | binds

Biological target: T4, human LTβR extracellular domain fused with an Fc fragment at the C-terminus (human, UniProt P36941 31-227)
T4 construct: extracellular domain; Bought; also called hLTβR; not shown: Fc fragment at the C-terminus
T4 sequence (P36941 31-227): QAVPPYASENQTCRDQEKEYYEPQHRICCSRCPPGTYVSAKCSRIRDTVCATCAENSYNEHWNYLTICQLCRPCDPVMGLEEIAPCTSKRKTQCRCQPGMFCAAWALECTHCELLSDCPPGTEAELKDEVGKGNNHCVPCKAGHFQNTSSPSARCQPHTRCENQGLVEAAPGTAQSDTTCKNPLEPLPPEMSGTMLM
Test: phage ELISA
Description: as §1, §2

Row | Binder | binding result
72 | B1 | binds
73 | B6 | binds
74 | B2 | binds
75 | B3 | binds
76 | B7 | binds
77 | B8 | binds
78 | B9 | binds
79 | B10 | binds
80 | B11 | binds
81 | B12 | binds
82 | B4 | binds
83 | B13 | binds
84 | B14 | binds
85 | B15 | binds
86 | B16 | binds
87 | B17 | binds
88 | B18 | binds

Row | Binder | binding result
89 | B19 | binds
90 | B20 | binds
91 | B21 | binds
92 | B22 | binds
93 | B23 | binds
94 | B24 | binds
95 | B25 | binds
96 | B26 | binds
97 | B27 | binds
98 | B28 | binds
99 | B29 | binds
100 | B30 | binds
101 | B5 | binds
102 | B31 | binds
103 | B32 | binds
104 | B33 | binds
